For five substances, Ki, IC50 of inhibition of thrombin amidolytic activity (500 pM thrombin, 100 µM S-2238), preincubation 0 min and IC50 of inhibition of thrombin amidolytic activity (500 pM thrombin, 100 µM S-2238), preincubation 30 min results are on record in paper PMC8772750.

Where two headings read alike, the source gives them in different places.

Experiment [1] has as its target Variegin (Amblyomma variegatum) (UniProt P85800). As to conditions: cited from earlier work.
Experiment [2] has the same target. The settings on record: cited from earlier work. This is another data set of the same source.
The target of experiment [3] is human α-thrombin (human) (UniProt P00734). The experiment can be described thus: enzyme inhibition kinetics (thrombin amidolytic assay with S-2238); tight-binding assay: inhibitor incubated with 500 pM thrombin for 30 min at 37 °C, then S-2238 added to 50-500 µM; 50 mM Tris-HCl pH 8.4, 150 mM NaCl, 0.1% PEG 6000; Morrison equation for tight-binding competitive inhibitors, apparent Ki' plotted against substrate concentration to obtain Ki.

For experiment [4] the target is unchanged.

With Thrombin (from UniProt P00734), the Ki was 0.0104 nM in experiment [1] and 14 nM in experiment [2].

As to “recombinant anophelin from Anopheles albimanus (natural protein)”, the Ki in the experiment with human α-thrombin (human) [3] turned out to be 0.0994 nM. In the experiment with human α-thrombin (human) [4], the IC50 of inhibition of thrombin amidolytic activity (500 pM thrombin, 100 µM S-2238), preincubation 0 min came to 6.35 nM and the IC50 of inhibition of thrombin amidolytic activity (500 pM thrombin, 100 µM S-2238), preincubation 30 min was determined as 6.78 nM.

As to “recombinant haemadin from the leech Haemadipsa sylvestris (natural protein)”, the Ki in the experiment with human α-thrombin (human) [3] is 0.000237 nM. In addition, in the experiment with human α-thrombin (human) [4], the IC50 of inhibition of thrombin amidolytic activity (500 pM thrombin, 100 µM S-2238), preincubation 0 min was 22 pM and the IC50 of inhibition of thrombin amidolytic activity (500 pM thrombin, 100 µM S-2238), preincubation 30 min was found to be 33.1 pM.

For “recombinant hirudin-1 from Hirudo medicinalis (desirudin) (from UniProt P01050 1-65) (natural protein)”, the Ki in the experiment with human α-thrombin (human) [3] was determined as 0.000217 nM. In the experiment with human α-thrombin (human) [4], this substance showed an IC50 of inhibition of thrombin amidolytic activity (500 pM thrombin, 100 µM S-2238), preincubation 0 min of 21.5 pM and an IC50 of inhibition of thrombin amidolytic activity (500 pM thrombin, 100 µM S-2238), preincubation 30 min of 28 pM.

As for “recombinant variegin from the tick Amblyomma variegatum (from UniProt P85800 1-32) (peptide)”, the Ki with human α-thrombin (human) [3] came out at 0.372 nM. In the experiment with human α-thrombin (human) [4], this substance registered an IC50 of inhibition of thrombin amidolytic activity (500 pM thrombin, 100 µM S-2238), preincubation 0 min of 14.6 nM and an IC50 of inhibition of thrombin amidolytic activity (500 pM thrombin, 100 µM S-2238), preincubation 30 min of 18.4 nM.
